Test results reported in patent US20250115663A1 (CELLDEX THERAPEUTICS, published 2025).

Tests used:
[1] = target: T1, kappa-sCD40-Flag fusion protein, full length ECD amino acid residues 1-173 (human, UniProt P25942 21-193); assay: ELISA, kappa-sCD40-Flag fusion (~1 ug/ml) captured on anti-Flag, anti-human IgG Fc-HRP
T1 construct: also called full length sCD40; not shown: N-terminal human kappa light chain; C-terminal Flag tag
Experimental: (§1) 1 μg/ml of purified kappa-sCD40-Flag fusion proteins or CHO cell supernatants containing the sCD40 fusion proteins were captured to microtiter plates that were pre-coated with 5 μg/ml mouse anti-Flag antibody (Sigma) in PBS and blocked with 5% bovine serum albumin in PBS. Following incubation with the CD40 antibody, the microplates were washed with PBS/Tween, and incubated with a goat anti-human IgG Fc polyclonal reagent conjugated to horseradish peroxidase. After washing, the plates were developed with HRP substrate, and analyzed at OD 450-650 using a microtiter plate reader. An ELISA with a goat anti-human IgG Fab2-HRP to measure kappa chain binding was carried out in parallel to validate the sCD40 fusion protein expression from different transfections.

[2] = target: T2, kappa-sCD40-Flag fusion protein, fragment amino acids 1-94 (human, UniProt P25942 21-114); assay: as above
T2 construct: also called sCD40aa 1-94; not shown: N-terminal human kappa light chain; C-terminal Flag tag
Experimental: as §1

[3] = target: T3, kappa-sCD40-Flag fusion protein, fragment amino acids 84-173 (human, UniProt P25942 104-193); assay: as above
T3 construct: not shown: N-terminal human kappa light chain; C-terminal Flag tag
Experimental: as §1

[4] = target: T4, kappa-sCD40-Flag fusion protein, fragment amino acids 36-130 (human, UniProt P25942 56-150); assay: as above
T4 construct: not shown: N-terminal human kappa light chain; C-terminal Flag tag
Experimental: as §1

[5] = target: T5, kappa-sCD40(1-94)-Flag mutant fragment C (multiple mutations of residues 25, 26, 28 and 30); assay: ELISA, kappa-sCD40-Flag fusion captured on anti-Flag, anti-human IgG Fc-HRP
T5 construct: also called C (25, 26, 28, 30)
Experimental: as §1

[6] = target: T6, kappa-sCD40(1-94)-Flag mutant fragment A (multiple mutations of residues 1-5) (human, UniProt P25942 26-114); assay: as above
T6 construct: The text says only multiple mutations of residues 1-5 (human to mouse differences); that mutant A carries exactly these is inferred; also called A (1-5); not shown: N-terminal human kappa light chain; C-terminal Flag tag
Experimental: as §1

[7] = target: T7, kappa-sCD40(1-94)-Flag mutant fragment B (multiple mutations of residues 13-15); assay: as above
T7 construct: also called B (13-15)
Experimental: as §1

T4 sequence (P25942 56-150): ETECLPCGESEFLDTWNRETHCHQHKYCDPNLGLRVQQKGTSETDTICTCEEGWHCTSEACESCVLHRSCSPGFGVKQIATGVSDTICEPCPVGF
T3 sequence (P25942 104-193): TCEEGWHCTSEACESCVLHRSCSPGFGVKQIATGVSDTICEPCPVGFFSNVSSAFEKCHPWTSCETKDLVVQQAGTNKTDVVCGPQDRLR
T1 sequence (P25942 21-193): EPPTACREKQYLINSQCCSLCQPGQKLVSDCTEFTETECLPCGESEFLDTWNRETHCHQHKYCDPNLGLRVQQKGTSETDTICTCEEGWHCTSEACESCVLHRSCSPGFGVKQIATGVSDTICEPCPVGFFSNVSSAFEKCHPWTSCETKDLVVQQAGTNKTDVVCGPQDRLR

B1: anti-CD40 human monoclonal antibody 3C3 (antibody, human IgG2, kappa, V domains shown)
VH: QVQLVESGGGVVQPGRSLRLSCAGSGFIFSRYGMYWVRQAPGKGLEWVAVIWYDGSYKYYADSVKGRFTISRDNSKNTLYLQMNSLRAEDTAVYYCARESPWYYFDYWGQGTLVTVSS
VL: DIQMTQSPSSLSASVGDRVTITCRASQGISNYLAWYQQKPGKVPKLLIYAASTLQSGVPSRFSGSGSGTDFTLTISSLQPEDVATYYCQKYKSAPFTFGPGTKVDIKR
notes: Human IgG2, C-terminal lysine removed; also called anti-CD40 mAb 3C3; CD40 antibody 3C3
- Average OD [1]: 1.26 OD 450-650
- Average OD [2]: 1.8 OD 450-650
- Average OD [3]: 0.024 OD 450-650
- Average OD [4]: 0.024 OD 450-650
- Average OD [5]: 1.49 OD 450-650
- Average OD [6]: 0.189 OD 450-650
- Average OD [7]: 2.03 OD 450-650
